Measured values from article PMC5703852, “Functional interplay between the transcription factors USF1 and PDX-1 and protein kinase CK2 in pancreatic β-cells” (Scientific Reports, 2017).

Target: T1, GST-USF1 T100D (UniProt P22415 1-310, T100D)
T1 construct: USF1 with the CK2 phosphorylation site threonine 100 changed to the phospho-mimicking aspartic acid, as GST fusion; also called phospho-mimicking USF1_(T100D) mutant; source: bacterial expression, purified GST fusion protein
Assay: pull-down; 10 µg purified GST fusion protein on GSH-sepharose in PBS-T (PBS pH 7.4, 1% Tween 20), 2 h at 4 °C with 7.5 µl in vitro translated [35S]methionine-labelled partner; SDS-PAGE, Coomassie, autoradiography
Details: one partner purified

T1 sequence (P22415 whole entry T100D, the tested form may be a part): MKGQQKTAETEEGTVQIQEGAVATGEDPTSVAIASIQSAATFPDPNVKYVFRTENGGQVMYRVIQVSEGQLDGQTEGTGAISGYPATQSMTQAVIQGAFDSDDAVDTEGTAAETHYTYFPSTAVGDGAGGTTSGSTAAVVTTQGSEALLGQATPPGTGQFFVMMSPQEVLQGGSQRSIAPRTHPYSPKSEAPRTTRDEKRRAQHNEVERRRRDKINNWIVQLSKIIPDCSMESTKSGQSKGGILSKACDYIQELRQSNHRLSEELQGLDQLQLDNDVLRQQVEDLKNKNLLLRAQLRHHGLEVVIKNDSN

B1: in vitro translated PDX-1 (pRSET-PDX-1) (natural protein)
chain: not shown
modifications: [35S]methionine labelled
notes: mouse PDX-1 cDNA cloned in frame into the BamH1/HindIII sites of pRSETA; also called wild-type PDX-1; source: in vitro translated (from pRSET-PDX-1, Promega)
Question: Which “fold binding against wild-type or alanine mutant USF1” value does the source give for B1 here?
Answer: 3.5 fold
